Data set [1] can be described thus: Hanes Woolf plot at different concentrations of hydrogen peroxide (Km). The format is biochemical. To be noted: substrate hydrogen peroxide, read-out: Km (substrate concentration at which the reaction rate is half of its maximal value). An excerpt: (§1) Catalase is a tetrameric haemprotein that catalyses the degradation of hydrogen peroxide to oxygen and water. The reaction can be used to determine enzyme activity. The reaction is a first order reaction, whereby the amount of peroxide substrate decomposed is directly proportional to the concentration of both substrate and enzyme. Provided the concentration of substrate is constant between experiments, any difference in decomposition rate will therefore be a function of enzyme activity present. In the present examples, the drop in absorbance hydrogen peroxide at […] from 0.450 to 0.400, corresponding to the decomposition of 3.45 μ moles of hydrogen peroxide in a cuvette having a reaction volume of 3 ml, is determined.
Native catalase, catalase derivitised using 1×10^−3M SDS, for a reaction period of 48 hours, and catalase derivatised using the same reaction time but in the absence of SDS, were compared at different concentrations of hydrogen peroxide to form Hanes Woolf plot.

Data set [2] can be described thus: Catalase determination (enzyme activity: time for hydrogen peroxide absorbance to drop from 0.450 to 0.400). The format is biochemical. As to conditions: for Time for Δ Ab: absorbance drop 0.45 to 0.40.
From the text: as §1
The derivatised catalase compounds were also tested against native catalase for their enzyme activity. The results for catalase alone in FIG. 3 show the effect of subjecting catalase to the reaction conditions but without the addition of activated colominic acid. […] The […] is greater when the polysialylation takes place in the presence of SDS.
The derivatised catalase products were assessed for their catalase activity using the general test described above. The times taken for the enzymes to reduce the absorbance from 0.45 to 0.40 are shown in table 1 as compared to native catalase.

B1: native catalase: tetrameric haemprotein enzyme from Sigma, used as model protein, underivatised (protein, UniProt P00432 2-527, looked up)
Catalase: ADNRDPASDQMKHWKEQRAAQKPDVLTTGGGNPVGDKLNSLTVGPRGPLLVQDVVFTDEMAHFDRERIPERVVHAKGAGAFGYFEVTHDITRYSKAKVFEHIGKRTPIAVRFSTVAGESGSADTVRDPRGFAVKFYTEDGNWDLVGNNTPIFFIRDALLFPSFIHSQKRNPQTHLKDPDMVWDFWSLRPESLHQVSFLFSDRGIPDGHRHMNGYGSHTFKLVNANGEAVYCKFHYKTDQGIKNLSVEDAARLAHEDPDYGLRDLFNAIATGNYPSWTLYIQVMTFSEAEIFPFNPFDLTKVWPHGDYPLIPVGKLVLNRNPVNYFAEVEQLAFDPSNMPPGIEPSPDKMLQGRLFAYPDTHRHRLGPNYLQIPVNCPYRARVANYQRDGPMCMMDNQGGAPNYYPNSFSAPEHQPSALEHRTHFSGDVQRFNSANDDNVTQVRTFYLKVLNEEQRKRLCENIAGHLKDAQLFIQKKAVKNFSDVHPEYGSRIQALLDKYNEEKPKNAVHTYVQHGSHLSAREKANL
With B1, in data set [1], the Km came out at 84 mM. In addition, the “Time for Δ Ab” value in data set [2] (Concentration SDS 0 %) was 4 min. In addition, the “enzyme activity (FIG. 3)” value in data set [2] (after the derivatisation reaction conditions, up to 48 hours at 35 to 40° C.) is “catalase activity is lost under those conditions”.

B2: derivatised catalase: catalase derivatised with activated colominic acid for 48 hours in the presence of SDS at 0.01, 0.02 or 0.029 % by weight (conjugate, UniProt P00432 2-527, looked up)
Catalase: ADNRDPASDQMKHWKEQRAAQKPDVLTTGGGNPVGDKLNSLTVGPRGPLLVQDVVFTDEMAHFDRERIPERVVHAKGAGAFGYFEVTHDITRYSKAKVFEHIGKRTPIAVRFSTVAGESGSADTVRDPRGFAVKFYTEDGNWDLVGNNTPIFFIRDALLFPSFIHSQKRNPQTHLKDPDMVWDFWSLRPESLHQVSFLFSDRGIPDGHRHMNGYGSHTFKLVNANGEAVYCKFHYKTDQGIKNLSVEDAARLAHEDPDYGLRDLFNAIATGNYPSWTLYIQVMTFSEAEIFPFNPFDLTKVWPHGDYPLIPVGKLVLNRNPVNYFAEVEQLAFDPSNMPPGIEPSPDKMLQGRLFAYPDTHRHRLGPNYLQIPVNCPYRARVANYQRDGPMCMMDNQGGAPNYYPNSFSAPEHQPSALEHRTHFSGDVQRFNSANDDNVTQVRTFYLKVLNEEQRKRLCENIAGHLKDAQLFIQKKAVKNFSDVHPEYGSRIQALLDKYNEEKPKNAVHTYVQHGSHLSAREKANL
modifications: colominic acid conjugate
With B2, the “Time for Δ Ab” value in data set [2] (SDS 0.01 % in derivatisation, 48 hours) is listed as 13 min; in data set [2] (SDS 0.02 % in derivatisation, 48 hours), 21 min; in data set [2] (SDS 0.029 % (1×10^−3M) in derivatisation, 48 hours), 44 min.

The record behind these values is patent US6962972B2, “Derivatization of proteins” (Lipoxen Technologies Limited, priority 2000, dated 2005).
